Results: patent US12171828B2, “Quil A fraction with low toxicity and use thereof” (Novavax AB, priority 2003, dated 2024)

Tested on: OVA
Experiment: OVA-specific serum antibody ELISA, QWT-iscoms with CT or MPL (Example 7)
Assay type: in vivo, NMRI mice
Details: 5 μg OVA without adjuvant
Procedure: Sera were collected 3 weeks after priming and 2 weeks after the booster injection.
Serum antibody determination, including total IgG, and subclasses IgG1 and IgG2a, was carried in out in ELISA as described in example 1.

B1: OVA alone: ovalbumin, weak model antigen, given without adjuvant (protein, UniProt P01012 2-386, looked up)
Ovalbumin: GSIGAASMEFCFDVFKELKVHHANENIFYCPIAIMSALAMVYLGAKDSTRTQINKVVRFDKLPGFGDSIEAQCGTSVNVHSSLRDILNQITKPNDVYSFSLASRLYAEERYPILPEYLQCVKELYRGGLEPINFQTAADQARELINSWVESQTNGIIRNVLQPSSVDSQTAMVLVNAIVFKGLWEKAFKDEDTQAMPFRVTEQESKPVQMMYQIGLFRVASMASEKMKILELPFASGTMSMLVLLPDEVSGLEQLESIINFEKLTEWTSSNVMEERKIKVYLPRMKMEEKYNLTSVLMAMGITDVFSSSANLSGISSAESLKISQAVHAAHAEINEAGREVVGSAEAGVDAASVSEEFRADHPFLFCIKHIATNAVLFFGRCVSP
For B1, the “serum IgG after booster” value was “low serum levels of IgG”.
